According to publication PMC10914744, “Key homeobox transcription factors regulate the development of the firefly’s adult light organ and bioluminescence”:

B1: biotin-WT AlLuc1 promoter probe (dsDNA)
DNA 1: ATACATTAAAGTATCTAATAAAAATTAATGGTTCATTAAGATATATAAAAAACA
DNA 2: TGTTTTTTATATATCTTAATGAACCATTAATTTTTATTAGATACTTTAATGTAT
B2: ABD-B binding site mutation probe (dsDNA)
DNA 1: ATACATTAAAGTATCCGGCGGGAACCGGCAATCTGCCGGGATATATAAAAAACA
DNA 2: TGTTTTTTATATATCCCGGCAGATTGCCGGTTCCCGCCGGATACTTTAATGTAT

Tests used:
AlABD-B [1] = target: T1, AlABD-B (Aquatica leii, UniProt A0AAN7SB49 90-481); assay: EMSA; poly(dI-dC); signal significantly reduced by unlabeled WT probe; LightShift EMSA kit; 2.0 ug protein (stored in PBS, 10% glycerol), 0.2 pmol probe, 2 ug/uL poly(dI-dC), 60 min at room temperature, native 6% PAGE; binding buffer salt and pH not stated; settings: protein: recombinant; tags: His (pET28a, Ni-NTA); label: biotin; blunt
AlABD-B [2] = target: T1, AlABD-B; assay: EMSA; poly(dI-dC); no significant complex detected; LightShift EMSA kit; 2.0 ug protein (stored in PBS, 10% glycerol), 0.2 pmol probe, 2 ug/uL poly(dI-dC), 60 min at room temperature, native 6% PAGE; binding buffer salt and pH not stated; settings: protein: recombinant; tags: His (pET28a, Ni-NTA); blunt

T1 sequence (A0AAN7SB49 entry or part of it): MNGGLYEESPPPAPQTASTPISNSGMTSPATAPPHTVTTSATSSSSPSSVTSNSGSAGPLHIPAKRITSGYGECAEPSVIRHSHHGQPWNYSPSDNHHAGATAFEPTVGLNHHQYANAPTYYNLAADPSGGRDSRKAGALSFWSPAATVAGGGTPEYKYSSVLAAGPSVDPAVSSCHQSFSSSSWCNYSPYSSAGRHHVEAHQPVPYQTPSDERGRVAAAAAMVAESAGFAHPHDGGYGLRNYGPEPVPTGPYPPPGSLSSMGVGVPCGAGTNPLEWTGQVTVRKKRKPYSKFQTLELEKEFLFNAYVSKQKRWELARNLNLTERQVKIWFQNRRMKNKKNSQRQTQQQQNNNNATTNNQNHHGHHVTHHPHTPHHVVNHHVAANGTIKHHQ

| Binder | binding result (AlABD-B [1]) | binding result (AlABD-B [2]) |
| --- | --- | --- |
| B1 | binds | – |
| B2 | – | no binding |
